Reference: patent US20260042834A1, “ANTI-CORTICOTROPIN-RELEASING HORMONE ANTIBODIES AND POLYCYSTIC OVARY SYNDROME” (HBM ALPHA THERAPEUTICS, INC., priority 2022, published 2026)

Experiments:
[1] = molecular target: biotinylated CRH (human and mouse); test: competitive ELISA, coated 1st mAb; competitor PR302064
[2] = molecular target: biotinylated CRH (human and mouse); test: Octet in-tandem, row = 1st mAb; competitor (2nd mAb) PR005660
[3] = molecular target: biotinylated CRH (human and mouse); test: competitive ELISA, coated 1st mAb; competitor PR006148
[4] = molecular target: biotinylated CRH (human and mouse); test: Octet in-tandem, row = 1st mAb; competitor (2nd mAb) PR303394
[5] = molecular target: biotinylated CRH (human and mouse); test: competitive ELISA, coated 1st mAb; competitor PR006152
[6] = molecular target: biotinylated CRH (human and mouse); test: Octet in-tandem, row = 1st mAb; competitor (2nd mAb) PR302341-34
[7] = molecular target: biotinylated CRH (human and mouse); test: Octet in-tandem, row = 1st mAb; competitor (2nd mAb) PR301777
[8] = molecular target: biotinylated CRH (human and mouse); test: competitive ELISA, coated 1st mAb; competitor PR301777
[9] = molecular target: biotinylated CRH (human and mouse); test: competitive ELISA, coated 1st mAb; competitor PR302055
[10] = molecular target: biotinylated CRH (human and mouse); test: Octet in-tandem, row = 1st mAb; competitor (2nd mAb) PR006669
[11] = molecular target: biotinylated CRH (human and mouse); test: competitive ELISA, coated 1st mAb; competitor PR004290
[12] = molecular target: biotinylated CRH (human and mouse); test: competitive ELISA, coated 1st mAb; competitor PR302069
[13] = molecular target: biotinylated CRH (human and mouse); test: competitive ELISA, coated 1st mAb; competitor hIgG1
[14] = molecular target: biotinylated CRH (human and mouse); test: Octet in-tandem, row = 1st mAb; competitor (2nd mAb) PR302334
[15] = molecular target: biotinylated CRH (human and mouse); test: competitive ELISA, coated 1st mAb; competitor PR005660
[16] = molecular target: biotinylated CRH (human and mouse); test: competitive ELISA, coated 1st mAb; competitor PR302050
[17] = molecular target: biotinylated CRH (human and mouse); test: Octet in-tandem, row = 1st mAb; competitor (2nd mAb) PR302309-8

Sequence of biotinylated CRH (human and mouse) (peptide, as listed by the source): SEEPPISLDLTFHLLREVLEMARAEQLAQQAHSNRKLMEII

## hIgG1 (antibody)
[1]
  % Inhibition: 0%
[2]
  % Inhibition: 12%
[3]
  % Inhibition: 0%
[4]
  % Inhibition: 10%
[5]
  % Inhibition: 0%
[6]
  % Inhibition: 12%
[7]
  % Inhibition: 9%
[8]
  % Inhibition: 0%
[9]
  % Inhibition: 0%
[10]
  % Inhibition: 9%
[11]
  % Inhibition: 0%
[12]
  % Inhibition: 0%
[13]
  % Inhibition: 0%
[14]
  % Inhibition: 8%
[15]
  % Inhibition: 0%
[16]
  % Inhibition: 0%
[17]
  % Inhibition: 15%
